From patent publication US20250388666A1 (BRIGHAM AND WOMEN S HOSPITAL, published 2025)
Several values for one entry are separate records, joined by “and”; a condition that tells them apart may be missing. Equal values may be shown once. Each block holds one binder with its values, some of them ahead of it.

Key:
[1] = molecular target: T1, CEACAM1 (Sino Biological) (human, UniProt P13688 35-428, limits assumed); assay: SPR single-cycle; one of the two experiments; the Parent of the other experiment reads 551 nM (r135)
T1 construct: may be the same as CEACAM1-HIS; also called hCEACAM1; biotinylated soluble CEACAM1
T1 sequence: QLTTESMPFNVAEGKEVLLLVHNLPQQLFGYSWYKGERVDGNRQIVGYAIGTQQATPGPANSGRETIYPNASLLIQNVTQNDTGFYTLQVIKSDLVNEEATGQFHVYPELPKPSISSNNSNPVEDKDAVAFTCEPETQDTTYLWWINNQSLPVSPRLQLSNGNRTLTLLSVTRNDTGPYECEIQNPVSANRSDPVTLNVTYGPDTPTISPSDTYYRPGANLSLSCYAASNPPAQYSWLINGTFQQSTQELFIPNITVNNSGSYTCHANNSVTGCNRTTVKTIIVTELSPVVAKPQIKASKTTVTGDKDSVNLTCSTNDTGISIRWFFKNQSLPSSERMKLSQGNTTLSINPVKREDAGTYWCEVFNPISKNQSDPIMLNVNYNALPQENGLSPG

[2] = molecular target: T2, CEACAM1-HIS (Sino Biologics Inc.) (Homo sapiens (Human), UniProt P13688 35-428); assay: SPR multi-cycle, IgG on Protein A
T2 construct: bought; not shown: His tag
T2 sequence: T1 sequence
Method: As an alternative approach to assess the binding of the antibody combinations and the control antibodies to CEACAM1, a kinetic analysis was performed on a Biacore T200 running Biacore T200 Evaluation Software V2.0.1. All experiments were run at 25° C. with HBS-P+ running buffer (pH 7.4).
For multi-cycle kinetic analysis purified antibody was immobilized at a protein concentration of 1 μg/mL in HBS-P+. At the start of each cycle, antibody was captured on Protein A to give an RU of ˜100 and the surface allowed to stabilize. Kinetic data was obtained at a flow rate of 35 μl/min to minimize any potential mass transfer effects. Multiple repeats of the blank (no CEACAM1) and a repeat of a single concentration of the analyte were programmed into the kinetic run in order to check the stability of both the surface and analyte over the kinetic cycles. For kinetic analysis, a 2-fold dilution series was selected from 100 to 1.5625 nM CEACAM1. The association phase of CEACAM1 was monitored initially for 180 seconds. In the subsequent experiment a longer association time (275 seconds) was used in order to better reach steady state. The dissociation phase was measured for 250 seconds. Regeneration of the Protein A surface was conducted using 2 injections of 10 mM glycine-HCL pH 1.5 at the end of each cycle.
The signal from the reference channel Fc1 was subtracted from that of Fc2, Fc3 and Fc4 to correct for differences in non-specific binding to a reference surface, a global Rmax parameter was used in the 1-to-1 binding model. The relative KD compared to the chimeric parental antibody was calculated by dividing the KD of the Composite Human Antibody™ variants by that of the chimeric parental antibody on the same chip.

Kd [1]: 159 nM
B1: VH2 N56Q/Vκ4 S27(f)A IgG (antibody, V domains shown)
VH: EVQLLESGGGLVQPGGSLRLSCAASGFSFSDYYLYWVRQAPGKGLEWVATISVGGGQTSYADSVKGRFTISRDNSKNTLYLQMNSLRAEDTAMYYCTRGLYYGPAWFAYWGQGTLVTVSS
VL: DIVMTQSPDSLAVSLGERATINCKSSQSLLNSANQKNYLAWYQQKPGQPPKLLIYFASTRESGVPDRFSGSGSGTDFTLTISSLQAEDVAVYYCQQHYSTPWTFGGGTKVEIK
notes: IgG4 S241P, kappa; also called Parent; Parent IgG

Kd [2]: 27.2 nM and 22.3 nM and 19.5 nM | koff [2]: 0.0053 s⁻¹ and 0.00571 s⁻¹ and 0.00531 s⁻¹ | kon [2]: 195000 M⁻¹ s⁻¹ and 256000 M⁻¹ s⁻¹ and 272000 M⁻¹ s⁻¹ | relative KD to chimeric parental antibody [2]: 1 ratio
B2: chimeric parental antibody VH0/Vκ0 (antibody, IgG4, V domains shown)
VH: EVQLVESGGGFVKPGGSLKLSCAASGFSFSDYYLYWVRQTPEKRLEWVATISVGGGNTSYPDSVKGRFTISRDNAKNNLYLQMSSLKSEDTAMYYCTRGLYYGPAWFAYWGQGTLVTVSA
VL: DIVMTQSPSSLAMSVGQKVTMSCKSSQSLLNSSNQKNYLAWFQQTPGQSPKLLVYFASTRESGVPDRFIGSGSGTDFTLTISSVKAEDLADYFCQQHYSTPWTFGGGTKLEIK
notes: IgG4 (S241P), kappa; also called Chimera; chimeric antibody
